This passage reports C4b Screen Ref Fold (fold of CFI-HSA wild type) and iC3b Screen Ref Fold (fold of CFI-HSA wild type) results from US20230038638A1, “COMPLEMENT FACTOR I-RELATED COMPOSITIONS AND METHODS” (published 2023).

Test [1] concerns the target T1, human C4b (human) (UniProt P0C0L4).
T1 sequence: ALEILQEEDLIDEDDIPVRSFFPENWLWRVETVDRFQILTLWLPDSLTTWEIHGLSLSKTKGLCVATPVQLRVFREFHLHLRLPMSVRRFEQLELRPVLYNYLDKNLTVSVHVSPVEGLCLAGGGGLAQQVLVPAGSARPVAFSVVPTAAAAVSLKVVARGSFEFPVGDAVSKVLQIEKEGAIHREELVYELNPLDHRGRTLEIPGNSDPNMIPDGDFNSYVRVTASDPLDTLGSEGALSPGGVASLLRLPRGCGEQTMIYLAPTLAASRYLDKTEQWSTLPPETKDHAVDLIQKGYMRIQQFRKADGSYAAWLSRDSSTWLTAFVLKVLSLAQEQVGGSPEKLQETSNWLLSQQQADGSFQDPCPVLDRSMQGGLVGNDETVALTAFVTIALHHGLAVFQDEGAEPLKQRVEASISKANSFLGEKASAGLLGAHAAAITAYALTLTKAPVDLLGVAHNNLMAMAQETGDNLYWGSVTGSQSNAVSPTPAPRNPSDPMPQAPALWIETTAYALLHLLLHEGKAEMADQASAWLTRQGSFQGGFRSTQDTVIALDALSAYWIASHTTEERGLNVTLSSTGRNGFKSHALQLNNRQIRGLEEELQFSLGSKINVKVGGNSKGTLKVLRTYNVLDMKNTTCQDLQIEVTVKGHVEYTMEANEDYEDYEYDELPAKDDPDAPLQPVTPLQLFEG

For test [2], the target named is soluble human C3b (human) (UniProt P01024).

With CFI-HSA L307S (enzyme), the C4b Screen Ref Fold (fold of CFI-HSA wild type) in test [1] amounted to 2.94. Besides, the iC3b Screen Ref Fold (fold of CFI-HSA wild type) in test [2] amounted to 1.54.
On the same counts, the results for “CFI-HSA N531G; E457G; E461Q; R462K (enzyme)” are 6.67 and 1.55.
The like results for CFI-HSA N531G; E457G; F464Y (enzyme) were, in that order, 6.55 and 1.24.
Take CFI-HSA N531G; E457G; R462K (enzyme): the C4b Screen Ref Fold (fold of CFI-HSA wild type) in test [1] came out at 7.02. The iC3b Screen Ref Fold (fold of CFI-HSA wild type) in test [2] amounted to 1.92.
The like results for “CFI-HSA N531G; E457G; R462K; F464Y (enzyme)” were, in that order, 6.38 and 1.32.
Turning to CFI-HSA N531G; E461Q (enzyme), the C4b Screen Ref Fold (fold of CFI-HSA wild type) in test [1] was found to be 6.13. Besides, in test [2], the iC3b Screen Ref Fold (fold of CFI-HSA wild type) is 1.45.
The like results for CFI-HSA N531G; E461Q; F464Y (enzyme) were, in that order, 6.83 and 1.76.
The like results for CFI-HSA N531G; E461Q; R462K (enzyme) were, in that order, 6.42 and 2.21.
The like results for “CFI-HSA N531G; E461Q; R462K; F464Y (enzyme)” were, in that order, 6.37 and 1.54.
CFI-HSA N531G; F464Y (enzyme): the C4b Screen Ref Fold (fold of CFI-HSA wild type) in test [1] worked out at 6.48. The iC3b Screen Ref Fold (fold of CFI-HSA wild type) in test [2] was 1.47.
For CFI-HSA N531G; P535A; S507A (enzyme), the C4b Screen Ref Fold (fold of CFI-HSA wild type) in test [1] is 0.26. In addition, the iC3b Screen Ref Fold (fold of CFI-HSA wild type) in test [2] was -0.02.
Take “CFI-HSA N531G; P535A; S507A; GGSSGG (SEQ ID NO: 6); CCP_1-4 (enzyme)”: the C4b Screen Ref Fold (fold of CFI-HSA wild type) in test [1] came to 0.2. For the same substance, the iC3b Screen Ref Fold (fold of CFI-HSA wild type) in test [2] was -0.02.
On the same counts, the results for CFI-HSA N531G; R462K (enzyme) are 6.13 and 1.17.
On the same counts, the results for CFI-HSA N531G; R462K; F464Y (enzyme) are 6.27 and 0.78.
As to CFI-HSA P535D (enzyme), the C4b Screen Ref Fold (fold of CFI-HSA wild type) in test [1] was 0.14. Further, in test [2], the iC3b Screen Ref Fold (fold of CFI-HSA wild type) turned out to be 0.01.
CFI-HSA P535E (enzyme): the C4b Screen Ref Fold (fold of CFI-HSA wild type) in test [1] turned out to be 0.45. For the same substance, the iC3b Screen Ref Fold (fold of CFI-HSA wild type) in test [2] stood at 0.24.
On the same counts, the results for CFI-HSA P535F (enzyme) are 0.19 and 0.3.
For CFI-HSA P535H (enzyme), the C4b Screen Ref Fold (fold of CFI-HSA wild type) in test [1] worked out at 0.22. Further, the iC3b Screen Ref Fold (fold of CFI-HSA wild type) in test [2] came to 0.42.
On to CFI-HSA P535I (enzyme), for which, in test [1], the C4b Screen Ref Fold (fold of CFI-HSA wild type) is 0.62. Besides, the iC3b Screen Ref Fold (fold of CFI-HSA wild type) in test [2] was 0.65.
For the substance CFI-HSA P535L (enzyme), the C4b Screen Ref Fold (fold of CFI-HSA wild type) in test [1] worked out at 0.27. Moreover, the iC3b Screen Ref Fold (fold of CFI-HSA wild type) in test [2] is 0.53.
On the same counts, the results for CFI-HSA P535M (enzyme) are 0.68 and 0.6.
Take CFI-HSA P535N (enzyme): the C4b Screen Ref Fold (fold of CFI-HSA wild type) in test [1] was 0.33. In addition, the iC3b Screen Ref Fold (fold of CFI-HSA wild type) in test [2] stood at 0.08.
On the same counts, the results for CFI-HSA P535Q (enzyme) are 1.24 and 0.37.
On the same counts, the results for CFI-HSA P535R (enzyme) are 1.24 and 0.77.
As to CFI-HSA P535S (enzyme), in test [1], the C4b Screen Ref Fold (fold of CFI-HSA wild type) came to 2.14. Moreover, in test [2], the iC3b Screen Ref Fold (fold of CFI-HSA wild type) stood at 0.58.
Consider CFI-HSA P535T (enzyme), for which the C4b Screen Ref Fold (fold of CFI-HSA wild type) in test [1] came to 0.4. Further, the iC3b Screen Ref Fold (fold of CFI-HSA wild type) in test [2] was 0.17.
On the same counts, the results for CFI-HSA P535V (enzyme) are 1.29 and 0.57.
The like results for CFI-HSA P535W (enzyme) were, in that order, 0.14 and 0.29.
On the same counts, the results for CFI-HSA R462K; F464Y (enzyme) are 0.83 and 0.11.
With “CFI-HSA S507A; GGSSGG (SEQ ID NO: 6); CCP_1-4 (enzyme)”, the C4b Screen Ref Fold (fold of CFI-HSA wild type) in test [1] stood at 0.43. In addition, in test [2], the iC3b Screen Ref Fold (fold of CFI-HSA wild type) turned out to be 0.
The like results for “CFI-HSA T346K; Y408L; K504D; E530K; N531G (enzyme)” were, in that order, 0.04 and 0.29.
Regarding CFI-HSA T346K; Y408L; N531G (enzyme), in test [1], the C4b Screen Ref Fold (fold of CFI-HSA wild type) was found to be 4.81. Also, the iC3b Screen Ref Fold (fold of CFI-HSA wild type) in test [2] came to 1.1.
The like results for “CFI-HSA T346R; Y408L; K504E; E530R; N531G (enzyme)” were, in that order, 0.1 and 0.67.
The like results for CFI-HSA T407G (enzyme) were, in that order, 0.11 and 0.59.
On the same counts, the results for CFI-HSA T407G; E457G (enzyme) are 0.42 and 0.89.
Consider CFI-HSA T407G; N531G (enzyme), for which the C4b Screen Ref Fold (fold of CFI-HSA wild type) in test [1] is 0.83. The iC3b Screen Ref Fold (fold of CFI-HSA wild type) in test [2] amounted to 0.85.
In the case of CFI-HSA T407G; Y408L; E457G (enzyme), in test [1], the C4b Screen Ref Fold (fold of CFI-HSA wild type) was 0.12. The iC3b Screen Ref Fold (fold of CFI-HSA wild type) in test [2] was 0.74.
The like results for “CFI-HSA T407G; Y408L; E457G; N531G (enzyme)” were, in that order, 0.67 and 0.56.
For the substance CFI-HSA T407G; Y408L; N531G (enzyme), the C4b Screen Ref Fold (fold of CFI-HSA wild type) in test [1] came out at 0.46. The iC3b Screen Ref Fold (fold of CFI-HSA wild type) in test [2] was found to be 1.43.
On the same counts, the results for CFI-HSA Y408L; E457G; E461Q (enzyme) are 6.36 and 1.18.
The like results for “CFI-HSA Y408L; E457G; E461Q; F464Y (enzyme)” were, in that order, 5.88 and 1.45.
On the same counts, the results for CFI-HSA Y408L; E457G; F464Y (enzyme) are 5.57 and 1.13.
For CFI-HSA Y408L; E457G; R462K (enzyme), the C4b Screen Ref Fold (fold of CFI-HSA wild type) in test [1] was 5.24. Further, the iC3b Screen Ref Fold (fold of CFI-HSA wild type) in test [2] amounted to 1.02.
The like results for “CFI-HSA Y408L; E457G; R462K; F464Y (enzyme)” were, in that order, 5.5 and 0.89.
With “CFI-HSA Y408L; E457G; S507A; N531G (enzyme)”, the C4b Screen Ref Fold (fold of CFI-HSA wild type) in test [1] came out at 0.12. Besides, the iC3b Screen Ref Fold (fold of CFI-HSA wild type) in test [2] is -0.01.
In the case of CFI-HSA Y408L; E461Q (enzyme), in test [1], the C4b Screen Ref Fold (fold of CFI-HSA wild type) is 4.44. The iC3b Screen Ref Fold (fold of CFI-HSA wild type) in test [2] was determined as 1.03.
On the same counts, the results for CFI-HSA Y408L; E461Q; F464Y (enzyme) are 4.83 and 1.51.
On the same counts, the results for CFI-HSA Y408L; E461Q; R462K (enzyme) are 2.53 and 1.33.
The like results for “CFI-HSA Y408L; E461Q; R462K; F464Y (enzyme)” were, in that order, 2.43 and 0.74.
For CFI-HSA Y408L; E530K; N531G (enzyme), the C4b Screen Ref Fold (fold of CFI-HSA wild type) in test [1] turned out to be 4.89. Moreover, the iC3b Screen Ref Fold (fold of CFI-HSA wild type) in test [2] came to 1.12.
The like results for CFI-HSA Y408L; E530R; N531G (enzyme) were, in that order, 4.67 and 1.09.
On the same counts, the results for CFI-HSA Y408L; F464Y (enzyme) are 0.67 and 0.55.
In the case of CFI-HSA Y408L; N531G (enzyme), in test [1], the C4b Screen Ref Fold (fold of CFI-HSA wild type) is 6.44. In test [2], the iC3b Screen Ref Fold (fold of CFI-HSA wild type) came to 1.29.
The like results for “CFI-HSA Y408L; N531G; E457G; E461Q; R462K; F464Y; S507A (enzyme)” were, in that order, 0.04 and -0.01.
Take “CFI-HSA Y408L; N531G; E457G; F464Y (enzyme)”: the C4b Screen Ref Fold (fold of CFI-HSA wild type) in test [1] was found to be 6.45. Further, the iC3b Screen Ref Fold (fold of CFI-HSA wild type) in test [2] was 0.84.
Turning to “CFI-HSA Y408L; N531G; E457G; R462K (enzyme)”, the C4b Screen Ref Fold (fold of CFI-HSA wild type) in test [1] stood at 6.12. For the same substance, in test [2], the iC3b Screen Ref Fold (fold of CFI-HSA wild type) came to 1.29.
